The record followed here is patent US20120301930A1 (YEDA RESEARCH AND DEVELOPMENT, published 2012).

The labels stand for the following.
B4: 10B-t chimera (catalytic module of T. fusca Xyn10B attached directly to dockerin S of Cel48S from Clostridium thermocellum) (enzyme)
chain: MASHHHHHHGPVHDHHPAPHSNAKSERLRWAAPDGFYIGSAVAGGGHHLEQDYPDPFTHDGKYRSILAQQFSSVSPENQMKWEYIHPEPDRYDFAMADKIVDFAERNDQKVRGHTLLWHSQNPEWLEEGDYSPEELREILRDHITTVVGRYAGRIHQWDVANEIFDEQGNLRTQENIWIRELGPGIIADAFRWAHEADPNAELFFNDYNVEGINPKSDAYYELIQELLDDGVPVHGFSVQGHLSTRYGFPGDLEQNLRRFDELGLATAITELDVRMDLPASGKPTPKQLEQQADYYQQALEACLAVEGCDSFTIWGFTDKYSWVPVFFPDEGAATIMTEKYERKPAFFALQQTLREARCADSPKPGPGKPKPGKGPKHDHCTSTYKVPGTPSTKLYGDVNDDGKVNSTDAVALKRYVLRSGISINTDNADLNEDGRVNSTDLGILKRYILKEIDTLPYKN
notes: Recombinant chimera expressed in E. coli, purified on a Ni column (His-tag); also called variant Xyn10B

The target of assay [1] is T1, b-48A chimera (catalytic module of T. fusca exoglucanase Cel48A ligated with a dockerin from the Bacteroides …).
T1 construct: Recombinant chimera; all enzyme constructs were designed to contain a His-tag; also called variant Cel48A
T1 chain: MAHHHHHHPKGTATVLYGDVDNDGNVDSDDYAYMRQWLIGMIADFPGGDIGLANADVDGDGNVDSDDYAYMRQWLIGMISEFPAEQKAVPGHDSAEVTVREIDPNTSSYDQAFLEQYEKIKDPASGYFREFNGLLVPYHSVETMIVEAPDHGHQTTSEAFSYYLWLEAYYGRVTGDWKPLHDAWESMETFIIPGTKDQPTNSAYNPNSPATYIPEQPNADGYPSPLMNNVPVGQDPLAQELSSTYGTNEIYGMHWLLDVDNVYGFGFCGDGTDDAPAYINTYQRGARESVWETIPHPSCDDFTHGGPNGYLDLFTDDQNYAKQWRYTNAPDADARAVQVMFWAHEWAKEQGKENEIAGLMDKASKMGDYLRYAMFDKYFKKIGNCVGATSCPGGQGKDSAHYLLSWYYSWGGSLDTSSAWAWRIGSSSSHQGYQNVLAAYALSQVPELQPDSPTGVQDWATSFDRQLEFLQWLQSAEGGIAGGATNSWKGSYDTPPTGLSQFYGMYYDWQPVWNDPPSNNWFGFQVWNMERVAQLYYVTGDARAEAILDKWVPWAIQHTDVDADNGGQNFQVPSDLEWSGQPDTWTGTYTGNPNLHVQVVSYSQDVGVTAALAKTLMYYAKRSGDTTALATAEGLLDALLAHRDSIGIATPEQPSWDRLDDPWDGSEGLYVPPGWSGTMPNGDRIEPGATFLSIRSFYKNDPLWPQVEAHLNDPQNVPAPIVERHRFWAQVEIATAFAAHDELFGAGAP
Kind of assay: affinity-based ELISA. (ELISA stands for enzyme-linked immunosorbent assay.)

Assay [2] deals with B4. Kind of assay: affinity-based ELISA; complex formation also by non-denaturing PAGE.
Assay [3] concerns the target T2, 11A-a chimera (catalytic module of T. fusca Xyn11A attached directly to dockerin B from Acetivibrio …).
T2 construct: Recombinant chimera expressed in E. coli, purified on a Ni column (His-tag)
Described as above.

Assay [4] deals with T3, 11A-XBM-a chimera (catalytic module of T. fusca Xyn11A together with its adjacent XBM attached to dockerin B …).
T3 construct: Recombinant chimera expressed in E. coli, purified on a Ni column (His-tag); also called variant Xyn11A
The description is as above.

The target of assay [5] is T4, f-5A chimera (catalytic module of T. fusca family-5 endoglucanase Cel5A fused to a dockerin from Ruminococcus …).
T4 construct: Recombinant chimera expressed in E. coli; all enzyme constructs were designed to contain a His-tag; also called variant Cel5A
T4 chain: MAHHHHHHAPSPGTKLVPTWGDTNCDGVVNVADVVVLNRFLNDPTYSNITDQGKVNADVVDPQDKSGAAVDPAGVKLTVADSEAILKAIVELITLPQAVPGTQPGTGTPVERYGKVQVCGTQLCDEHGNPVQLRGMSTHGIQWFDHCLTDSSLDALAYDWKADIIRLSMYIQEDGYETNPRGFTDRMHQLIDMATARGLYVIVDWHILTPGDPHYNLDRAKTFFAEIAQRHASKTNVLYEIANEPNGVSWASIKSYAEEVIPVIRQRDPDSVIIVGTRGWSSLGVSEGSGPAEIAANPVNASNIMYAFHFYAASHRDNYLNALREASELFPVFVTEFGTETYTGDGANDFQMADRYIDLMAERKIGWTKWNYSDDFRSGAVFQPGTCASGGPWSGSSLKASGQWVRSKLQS
The assay is described as above.

Assay [6] concerns the target T5, Scaf-T single-cohesin scaffoldin (CBM with C. thermocellum cohesin) (Acetivibrio thermocellus (strain ATCC …, UniProt Q06851 361-706)).
T5 construct: Individual single-cohesin scaffoldin; also called pScaf.T
T5 sequence: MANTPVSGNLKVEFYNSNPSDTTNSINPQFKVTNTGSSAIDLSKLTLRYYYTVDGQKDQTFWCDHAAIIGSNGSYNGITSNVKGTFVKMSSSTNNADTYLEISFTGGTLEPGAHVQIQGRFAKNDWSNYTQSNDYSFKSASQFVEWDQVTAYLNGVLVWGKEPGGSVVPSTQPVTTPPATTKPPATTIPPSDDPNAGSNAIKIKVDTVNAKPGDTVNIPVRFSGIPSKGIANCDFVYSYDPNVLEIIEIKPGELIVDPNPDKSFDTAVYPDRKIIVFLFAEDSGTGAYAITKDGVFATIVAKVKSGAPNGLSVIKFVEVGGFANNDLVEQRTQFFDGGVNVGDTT
The assay is described as follows: affinity-based ELISA.

Assay [7] addresses T1, b-48A chimera (catalytic module of T. …). Kind of assay: affinity-based ELISA; complex formation also by non-denaturing PAGE.
Assay [8] deals with T2, 11A-a chimera (catalytic module of T. …). Kind of assay: affinity-based ELISA.
In assay [9] the target is T3, 11A-XBM-a chimera (catalytic module of …). Kind of assay: affinity-based ELISA.

B1: Scaf-B single-cohesin scaffoldin (CBM with B. cellulosolvens cohesin) (other)
chain: MANTPVSGNLKVEFYNSNPSDTTNSINPQFKVTNTGSSAIDLSKLTLRYYYTVDGQKDQTFWCDHAAIIGSNGSYNGITSNVKGTFVKMSSSTNNADTYLEISFTGGTLEPGAHVQIQGRFAKNDWSNYTQSNDYSFKSASQFVEWDQVTAYLNGVLVWGKEPGGSVVPSTQPVTTPPATTKPPATTIPPSDDPNAGSGKSSPGNKMKIQIGDVKANQGDTVIVPITFNEVPVMGVNNCNFTLAYDKNIMEFISADAGDIVTLPMANYSYNMPSDGLVKFLYNDQAQGAMSIKEDGTFANVKFKIKQSAAFGKYSVGIKAIGSISALSNSKLIPIESIFKDGSITVTN
notes: Individual single-cohesin scaffoldin
In the case of B1, the binding result in assay [1] is recorded as “binds”.

B2: Scaf AT chimeric scaffoldin (A. cellulolyticus cohesin 3, cellulose-binding CBM, cohesin 3 from the C. thermocellum CipA scaffoldin) (other)
chain: MDLQVDIGSTSGKAGSVVSVPITFTNVPKSGIYALSFRTNFDPQKVTVASIDAGSLIENASDFTTYYNNENGFASMTFEAPVDRARIIDSDGVFATINFKVSDSAKVGELYNITTNSAYTSFYYSGTDEIKNVVYNDGKIEVIASVPTNTPTNTPANTPVSGNLKVEFYNSNPSDTTNSINPQFKVTNTGSSAIDLSKLTLRYYYTVDGQKDQTFWCDHAAIIGSNGSYNGITSNVKGTFVKMSSSTNNADTYLEISFTGGTLEPGAHVQIQGRFAKNDWSNYTQSNDYSFKSASQFVEWDQVTAYLNGVLVWGKEPGGSVVPSTQPVTTPPATTKPPATTIPPSDDPNAIKIKVDTVNAKPGDTVNIPVRFSGIPSKGIANCDFVYSYDPNVLEIIEIKPGELIVDPNPDKSFDTAVYPDRKIIVFLFAEDSGTGAYAITKDGVFATIVAKVKSGAPNGLSVIKFVEVGGFANNDLVEQRTQFFDGGVNVGDIHHHHHH
On to B2, for which the binding result in assay [2], in assay [3] and in [4] was “binds” each time.

B3: Scaf-ATF chimeric scaffoldin (cohesins A, T and F with the cellulose-binding CBM) (other)
chain: MDLQVDIGSTSGKAGSVVSVPITFTNVPKSGIYALSFRTNFDPQKVTVASIDAGSLIENASDFTTYYNNENGFASMTFEAPVDRARIIDSDGVFATINFKVSDSAKVGELYNITTNSAYTSFYYSGTDEIKNVVYNDGKIEVIASVPTNTPTNTPANTPVSGNLKVEFYNSNPSDTTNSINPQFKVTNTGSSAIDLSKLTLRYYYTVDGQKDQTFWCDHAAIIGSNGSYNGITSNVKGTFVKMSSSTNNADTYLEISFTGGTLEPGAHVQIQGRFAKNDWSNYTQSNDYSFKSASQFVEWDQVTAYLNGVLVWGKEPGGSVVPSTQPVTTPPATTKPPATTIPPSDDPNAIKIKVDTVNAKPGDTVNIPVRFSGIPSKGIANCDFVYSYDPNVLEIIEIKPGELIVDPNPDKSFDTAVYPDRKIIVFLFAEDSGTGAYAITKDGVFATIVAKVKSGAPNGLSVIKFVEVGGFANNDLVEQRTQFFDGGVNVGDIGSAGGLSAVQPNVSLGEVLDVSANRTAADGTVEWLIPTVTAAPGQTVTMPVVVKSSSLAVAGAQFKIQAATGVSYSSKTDGDAYGSGIVYNNSKYAFGQGAGRGIVAADDSVVLTLAYTVPADCAEGTYDVKWSDAFVSDTDGQNITSKVTLTDGAIIVHHHHHH
Consider B3, for which the binding result in assay [5], in assay [2], in assay [3] and in assay [4] was “binds” in each case.
Turning to B4, in [6], the binding result is on record as “binds”.

B5: Scaf-BF chimeric scaffoldin (cohesin from B. cellulosolvens ScaB, CBM3a from C. thermocellum, cohesin 1 from R. flavefaciens scaffoldin B) (other)
chain: MAGKSSPGNKMKIQIGDVKANQGDTVIVPITFNEVPVMGVNNCNFTLAYDKNIMEFISADAGDIVTLPMANYSYNMPSDGLVKFLYNDQAQGAMSIKEDGTFANVKFKIKQSAAFGKYSVGIKAIGSISALSNSKLIPIESIFKDGSITVTKVPTNTPTNTPANTPVSGNLKVEFYNSNPSDTTNSINPQFKVTNTGSSAIDLSKLTLRYYYTVDGQKDQTFWCDHAAIIGSNGSYNGITSNVKGTFVKMSSSTNNADTYLEISFTGGTLEPGAHVQIQGRFAKNDWSNYTQSNDYSFKSASQFVEWDQVTAYLNGVLVWGKEPGGSVVPSTQPVTTPPATTKPPATTIPPSEDPAGGLSAVQPNVSLGEVLDVSANRTAADGTVEWLIPTVTAAPGQTVTMPVVVKSSSLAVAGAQFKIQAATGVSYSSKTDGDAYGSGIVYNNSKYAFGQGAGRGIVAADDSVVLTLAYTVPADCAEGTYDVKWSDAFVSDTDGQNITSKVTLTDGAIIVHHHHHH
With B5, the binding result in assay [5] and in assay [7] was “binds” in each case.

B6: Scaf-A single-cohesin scaffoldin (CBM with A. cellulolyticus cohesin) (other)
chain: MANTPVSGNLKVEFYNSNPSDTTNSINPQFKVTNTGSSAIDLSKLTLRYYYTVDGQKDQTFWCDHAAIIGSNGSYNGITSNVKGTFVKMSSSTNNADTYLEISFTGGTLEPGAHVQIQGRFAKNDWSNYTQSNDYSFKSASQFVEWDQVTAYLNGVLVWGKEPGGSVVPSTQPVTTPPATTKPPATTIPPSDDPNAGSDLQVDIGSTSGKAGSVVSVPITFTNVPKSGIYALSFRTNFDPQKVTVASIDAGSLIENASDFTTYYNNENGFASMTFEAPVDRARIIDSDGVFATINFKVSDSAKVGELYNITTNSAYTSFYYSGTDEIKNVVYNDGKIEVIAS
notes: Individual single-cohesin scaffoldin; also called pScaf-A
Take B6: the binding result in assay [8] and in assay [9] was “binds” in each case.
